From article PMC12067460, “Probing the ferredoxin:hydrogenase electron transfer complex by infrared difference spectroscopy†” (Chemical Science, 2025)
Values belong to the molecule of their own block, whether it stands above or below them. Where no end group is shown, it is not given here.

How the values were obtained:
[1] = target: Y3pCNF-CpFd, ferredoxin CpFd from Clostridium pasteurianum with tyrosine Y3 replaced by 4-cyano-L-phenylalanine (holo) (Clostridium pasteurianum) (UniProt P00195); assay: MST; anaerobic; reducing conditions (dithionite); ferredoxin labelled with Alexa Fluor 647
[2] = target: clostridial 2[4Fe-4S] ferredoxin CpFd from Clostridium pasteurianum, wild type (holo) (Clostridium pasteurianum) (UniProt P00195); assay: as above
[3] = target: ferredoxin PetF from Chlamydomonas reinhardtii, wild type, Alexa Fluor 647-labeled (Chlamydomonas reinhardtii) (UniProt P07839); assay: MST; labeled PetF (200 nM) titrated with unlabeled CrHydA1 (0.003–10 µM) with 2 mM dithionite under anaerobic conditions; read-out: concentration-dependent fluorescence quenching of the Alexa Fluor 647 label; 50 mM TRIS pH 8, 50 mM NaCl, 1 mM MgCl2, 0.05 mg/mL BSA, 0.05% Tween20; Monolith NT.115, 22°C
[4] = target: T1, [FeFe]-hydrogenase CpI from Clostridium pasteurianum (Clostridium pasteurianum, UniProt P29166 1-574); assay: MST; anaerobic; reducing conditions (dithionite); ferredoxin labelled with Alexa Fluor 647; details: both partners purified
T1 construct: [FeFe]-hydrogenase CpI of Clostridium pasteurianum, with H-domain (H-cluster) and F-domain (three [4Fe-4S] clusters, one [2Fe-2S] cluster)
T1 sequence: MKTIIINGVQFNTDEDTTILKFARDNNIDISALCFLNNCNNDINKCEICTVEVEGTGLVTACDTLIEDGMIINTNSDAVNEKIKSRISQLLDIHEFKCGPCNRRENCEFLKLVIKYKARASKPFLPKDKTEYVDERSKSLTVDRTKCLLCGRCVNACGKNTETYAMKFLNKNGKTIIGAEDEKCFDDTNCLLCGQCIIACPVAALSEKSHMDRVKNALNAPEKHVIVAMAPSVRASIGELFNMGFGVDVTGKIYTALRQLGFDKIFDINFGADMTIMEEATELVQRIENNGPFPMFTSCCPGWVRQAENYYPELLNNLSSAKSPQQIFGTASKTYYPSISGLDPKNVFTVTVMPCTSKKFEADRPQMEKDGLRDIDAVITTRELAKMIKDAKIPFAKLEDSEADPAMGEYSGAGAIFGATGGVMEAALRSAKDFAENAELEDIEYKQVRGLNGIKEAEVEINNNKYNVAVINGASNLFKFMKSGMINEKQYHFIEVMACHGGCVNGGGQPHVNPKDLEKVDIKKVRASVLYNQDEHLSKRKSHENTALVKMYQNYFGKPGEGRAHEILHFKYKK

Molecule: [FeFe]-hydrogenase CpI from Clostridium pasteurianum (from UniProt P29166 1-574) (enzyme)
- Kd [1]: 11.3 µM

- Kd [2]: 2.41 µM
- Kd [3]: 1.24 µM
Molecule: [FeFe]-hydrogenase CrHydA1 from Chlamydomonas reinhardtii (enzyme)

- Kd [4]: 12.4 ± 0.97 µM
B1: clostridial 2[4Fe-4S] ferredoxin CpFd from Clostridium pasteurianum, wild type (holo) (natural protein)
chain: AYKIADSCVSCGACASECPVNAISQGDSIFVIDADTCIDCGNCANVCPVGAPVQE
modifications: cysteine pairing not given here; also: Alexa Fluor 647 dye label, site not given here, binds two [4Fe-4S] clusters (F and F')
notes: Ferredoxin CpFd of Clostridium pasteurianum, 2[4Fe-4S] type, wild type; Tested reduced (with dithionite) and oxidized (without dithionite); the redox state is told by the assay; also called wild-type CpFd; holo-CpFd; source: E. coli C321.ΔA.opt
